Data: publication PMC9191643, “Cryo-EM structure of DNA-bound Smc5/6 reveals DNA clamping enabled by multi-subunit conformational changes”

Target: Smc5 (E1015Q);Smc6 (E1048Q);Nse1;Nse2;Nse3;Nse4 (Saccharomyces cerevisiae;Saccharomyces …, UniProt Q08204;Q12749;Q07913;P38632;Q05541;P43124 1-1093;1-1114;1-336;1-267;1-303;1-402, E1015Q|E1048Q||||)
Assay: cryo-EM structure (3.8 A); 1 mM ATP, 2 mM MgCl2; 0.3 mg/mL complex, 1.5 uM DNA; Cryo-EM sample: 1 mM ATP, 2 mM MgCl2, 1.5 uM dsDNA, 4 C, 2 h; complex from size exclusion in 25 mM Hepes pH 7.5, 250 mM NaCl, 1 mM DTT (final binding buffer not stated)
Details: protein: recombinant;recombinant;recombinant;recombinant;recombinant;recombinant; copies: 1;1;1;1;1;1; blunt

B1: cryo-EM dsDNA (dsDNA)
DNA 1: TGGTTTTTATATGTTTTGTTATGTATTGTTTATTTTCCCTTTAATTTTAGGATATGAAAACAAGAATTTATC
DNA 2: GATAAATTCTTGTTTTCATATCCTAAAATTAAAGGGAAAATAAACAATACATAACAAAACATATAAAAACCA
B1: binds.
